Assay results as given in patent US20040053235A1 (published 2004).

Molecular target: the molecule itself
Experiment: size exclusion chromatography on Superdex 200: activity peaks at 42.4 and 87.5 kD, each a single 42.2 kD polypeptide on SDS-PAGE (self-association)
Procedure: Further purification of the enzyme activity was carried out by Ni2+ affinity chromatography (which binds the poly-histidine tag of the recombinant protein) and size exclusion chromatography. Nickel affinity chromatography was carried out by passing an E. coli extract, prepared as described above, through a column containing NTA-agarose (Novagen “His-Bind Resin”). 5 ml of the resin were washed with 30 ml H₂O, charged with 30 ml NiSO₄ washed with 30 ml H₂O and equilibrated with 30 ml 50 mM Na-phosphate pH 8, 300 mM NaCl. The E. coli pellet was suspended in 50 mM Na-phosphate pH 8, 300 mM NaCl and sonicated. The suspension was centrifuged again (9000 g, 20 min). The supernatant was stirred with the Ni-resin on ice for 1 hour. The suspension was transferred into a column. After settling down the column was washed with 250 ml 50 mM Na-phosphate pH 6 containing 300 mM NaCl an d 10% glycerol. Ni-bound protein was eluted with 500 mM imidazole/50 mM Na-phosphate at pH 6 containing 300 mM NaCl. Fractions were collected and assayed for L-galactose dehydrogenase activity. […] This sample was then subjected to size exclusion chromatography on a Superdex 200 column (Amersham-Pharmacia Biotech) using 25 mM tris-HCl buffer pH 7 containing 150 mM NaCl as eluent Fractions (1 ml) were collected and two peaks of activity corresponding to molecular weights of 42.4 and 87.5 kD were detected. […]

B1: recombinant Arabidopsis thaliana L-galactose dehydrogenase (expressed in E. coli from pRSETB-LgalDH, with poly-histidine tag) (enzyme)
chain: MTKIELRALGNTGLKVSAVGFGASPLGSVFGPVAEDDAVATVREAFRLGINFFDTSPYYGGTLSEKMLGKGLKALQVPRSDYIVATKCGRYKEGFDFSAERVRKSIDESLERLQLDYVDILHCHDIEFGSLDQIVSETIPALQKLKQEGKTRFIGITGLPLDIFTYVLDRVPPGTVDVILSYCHYGVNDSTLLDLLPYLKSKGVGVISASPLAMGLLTEQGPPEWHPASPELKSASKAAVAHCKSKGKKITKLALQYSLANKEISSVLVGMSSVSQVEENVAAVTELESLGMDQETLSEVEAILEPVKNLTWPSGIHQN
notes: The entry describes one subunit; also called recombinant L-galDH; not shown: poly-histidine tag and vector-encoded residues from pRSETB
B1: binds.
